Biological target: A1 domain of von Willebrandt factor (vWf), His-tagged A1 antigen (human) (UniProt P04275)
Assay: flow cytometry, yeast-displayed scFv with His-tagged A1 and Alexa-488 anti-His tag

**Q.** Which percent of cells positive for A1 binding does the source give for “scFv of the murine NMC-4 antibody, displayed on yeast (pYD-NMC4-scFv in EBY100) (from UniProt P32781 19-87)” here?
**A.** 50 to 70%

Reference: patent US20080003617A1
